Data from patent US20260191929A1.

Biological target: mouse CD117 (stem cell factor receptor, c-Kit) on mouse bone marrow and lung cells (mouse) (UniProt P05532)
Experiment: cell-based or functional assay

Sequence of UniProt P05532 (P05532 25-979): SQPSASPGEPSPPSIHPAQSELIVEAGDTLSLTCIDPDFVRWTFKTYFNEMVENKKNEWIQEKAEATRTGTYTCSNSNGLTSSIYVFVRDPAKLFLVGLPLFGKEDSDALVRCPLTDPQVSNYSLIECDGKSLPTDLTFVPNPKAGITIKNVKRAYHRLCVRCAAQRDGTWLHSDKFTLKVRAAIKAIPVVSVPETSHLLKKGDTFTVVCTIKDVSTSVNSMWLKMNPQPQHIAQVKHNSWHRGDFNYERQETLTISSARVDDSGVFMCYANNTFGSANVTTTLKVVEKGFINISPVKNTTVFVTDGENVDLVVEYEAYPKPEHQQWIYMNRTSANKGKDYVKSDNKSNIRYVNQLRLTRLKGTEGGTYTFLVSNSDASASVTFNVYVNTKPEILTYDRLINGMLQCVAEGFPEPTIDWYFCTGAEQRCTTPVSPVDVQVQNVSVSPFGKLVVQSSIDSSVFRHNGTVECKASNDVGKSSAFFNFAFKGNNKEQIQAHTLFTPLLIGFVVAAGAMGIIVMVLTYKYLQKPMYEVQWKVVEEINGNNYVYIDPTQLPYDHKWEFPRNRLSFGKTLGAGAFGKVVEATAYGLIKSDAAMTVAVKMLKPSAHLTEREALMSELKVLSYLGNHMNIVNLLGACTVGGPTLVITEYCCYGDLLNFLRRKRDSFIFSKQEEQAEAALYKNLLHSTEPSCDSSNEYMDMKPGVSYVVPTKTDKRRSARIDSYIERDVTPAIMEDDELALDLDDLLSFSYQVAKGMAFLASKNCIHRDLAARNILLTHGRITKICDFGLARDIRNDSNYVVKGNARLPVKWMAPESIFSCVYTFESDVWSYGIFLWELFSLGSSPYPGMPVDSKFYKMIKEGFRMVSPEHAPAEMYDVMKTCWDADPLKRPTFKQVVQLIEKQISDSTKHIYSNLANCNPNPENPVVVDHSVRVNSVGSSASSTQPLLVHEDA

gene editing (tdTomato) frequency in cKit+ lung cells after in vivo CD117/LNP-Cre: 90% | luciferase activity normalized to the frequency of antigen positive cells, Lin- cells, relative to CD45/LNP: 700 fold | luciferase activity normalized to the frequency of antigen positive cells, whole bone marrow (WBM), relative to CD45/LNP: 500 fold
Substance: purified rat anti-mouse CD117 (c-kit), clone 2B8 (BioLegend 93235), conjugated to LNP-mRNA (antibody)
